Our source for the Kd, binding result and EC50 values is patent US20200299380A1 (published 2020).

For one assay, the target named is T1, MICA*001-BirA (human, UniProt Q29983 24-297).
T1 construct: also called MICA-BirA; MICA*01-BirA; not shown: BirA tag
T1 sequence: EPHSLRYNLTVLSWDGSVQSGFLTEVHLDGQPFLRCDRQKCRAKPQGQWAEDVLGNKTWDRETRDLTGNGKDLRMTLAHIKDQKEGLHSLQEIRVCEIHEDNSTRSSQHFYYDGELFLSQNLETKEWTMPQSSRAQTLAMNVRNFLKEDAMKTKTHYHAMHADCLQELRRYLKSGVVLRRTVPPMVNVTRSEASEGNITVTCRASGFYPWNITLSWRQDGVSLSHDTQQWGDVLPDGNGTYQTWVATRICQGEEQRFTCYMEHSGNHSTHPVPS
The assay is described as follows: SPR single cycle kinetics, monovalent mean KD at pH 7.4, antibody captured on Protein-G chip, MICA-BirA injected. As for the experimental part:
For monovalent affinity measurement, chimeric anti-MICA antibodies were captured onto a Protein-G chip.
Affinities were determined using single cycle kinetics (SCK). SCK cycles were as follows: Successive 120s injections at 30 μl/min of 5 serial dilutions (0.01 to 100 nM) of MICA-His or MICA-BirA in ascending order (or of buffer for the blank injections to be subtracted during the analysis). After the last concentration is injected, complex is left to dissociate for 600s before regeneration by a 10s injection of appropriate regeneration buffer at 40 μl/min. After the regeneration, chip is left to stabilise for 60s in running buffer. Curves are fitted using Biacore T100 Evaluation software.

For assay [1], the target named is T2, MICB-Fc (R&D Systems 1599-MB) (human, UniProt Q29980 23-298, limits assumed).
T2 construct: Bought; also called human MICB-Fc; not shown: Fc of the bought fusion protein
T2 sequence: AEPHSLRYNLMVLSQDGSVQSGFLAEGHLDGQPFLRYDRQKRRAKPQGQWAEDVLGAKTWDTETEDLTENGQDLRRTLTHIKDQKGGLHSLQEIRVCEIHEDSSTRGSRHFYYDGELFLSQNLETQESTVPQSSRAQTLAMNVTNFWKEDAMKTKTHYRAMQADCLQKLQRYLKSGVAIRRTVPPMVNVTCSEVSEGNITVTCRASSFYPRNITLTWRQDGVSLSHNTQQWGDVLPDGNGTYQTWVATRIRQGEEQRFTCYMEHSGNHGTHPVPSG
The assay is described as follows: SPR, antibody at 10 µg/ml injected over immobilized MICB-Fc. As for the experimental part:
(§1) For cross-binding study, the human ULBP-1-Fc (R&D systems*), MICB-Fc (*), ULBP-2-Fc (*) and ULBP-3-Fc (*) recombinant proteins were covalently immobilized respectively on the flow cell one to four of a CM5 sensorchip. Anti-MICA antibodies (at a constant concentration of 10 μg/ml) were injected for 2 minutes at a flow rate of 10 μl/min onto the four flow cells in parallel. After each cycle, Sensorchip was regenerated by a five second injection of appropriate regeneration buffer.
On the technique in general: SPR reads the build-up and loss of mass on a sensor chip optically.

In assay [2] the target is T3, MICA*007 expressed at the cell surface (human, UniProt Q29983 24-297).
T3 construct: also called C1R-MICA*007; C1R-MICA*07
T3 chain: T1 sequence with T24A, K125E
In words: flow cytometry on C1R transfectant cells, 4-parameter logistic fit. As for the experimental part:
(§2) The binding of antibodies obtained from the first, second and third immunization series (including CHG1-M-MIA-19E9, CHG1-M-MIA-9C10, CHG1-M-MIA-6E4, CHG1-M-MIA-20C6, CHG1-M-MIA-16A8, CHG1-M-MIA-12A10, CHG1-M-MIA-10A7, CHG1-M-MIA-18E8, CHG1-M-MIA-10F3, CHG1-M-MIA-15F9 and CHG1-M-MIA-14B4) were tested for binding to MICA-expressing CR1 transfectant cells C1R-MICA*001, C1R-MICA*004, C1R-MICA*007 and C1R-MICA*008 (Pr. A. Steinle, Eberhard-Karls University Tuebingen, Germany) described in Salih et al. (2003) Blood 102(4): […]. Binding was analyzed by flow cytometry.
(§3) Cells were harvested and stained in PBS 1×/BSA 0.2%/EDTA 2 mM buffer during 30 minutes at 4° C. using a dose-range of the anti-MICA mAbs. After two washes in staining buffer, cells were stained for 30 min at 4° C. with mouse anti-human IgG1-PE monoclonal antibodies (1/11). After two washes, stainings were acquired on a BD FACS Canto II and analyzed using the FlowJo software.
(§4) Antibodies CHG1-M-MIA-19E9, CHG1-M-MIA-9C10, CHG1-M-MIA-6E4, CHG1-M-MIA-20C6, CHG1-M-MIA-12A10, CHG1-M-MIA-10A7, CHG1-M-MIA-18E8, CHG1-M-MIA-10F3, and CHG1-M-MIA-15F9 bound to each of the C1R-MICA*001, C1R-MICA*004, C1R-MICA*007 and C1R-MICA*008 cells (see FIG. 1A for antibodies CHG1-M-MIA-19E9, CHG1-M-MIA-9C10, CHG1-M-MIA-6E4, CHG1-M-MIA-20C6, CHG1-M-MIA-12A10, CHG1-M-MIA-10F3, and FIG. 1B for antibodies, CHG1-M-MIA-18E8, CHG1-M-MIA-15F9, CHG1-M-MIA-10A7). […] EC50 values are shown in Table C in μg/ml (calculated using a 4-parameter logistic fit).

Assay [3] has as its target T4, MICA*004 expressed at the cell surface (human, UniProt Q29983 24-297).
T4 construct: also called C1R-MICA*004; C1R-MICA*04
T4 chain: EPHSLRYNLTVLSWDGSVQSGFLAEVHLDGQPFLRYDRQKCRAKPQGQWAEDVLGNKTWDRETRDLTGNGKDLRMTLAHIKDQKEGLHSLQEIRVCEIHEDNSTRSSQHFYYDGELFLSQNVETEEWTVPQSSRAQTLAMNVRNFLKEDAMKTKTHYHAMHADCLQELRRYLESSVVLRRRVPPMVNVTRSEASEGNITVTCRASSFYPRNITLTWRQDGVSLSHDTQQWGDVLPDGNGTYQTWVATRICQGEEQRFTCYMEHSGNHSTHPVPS
The assay is described as above. As for the experimental part: as §2, §3, §4

The target of assay [4] is T5, MICA*001 expressed at the cell surface (human, UniProt Q29983 24-297).
T5 construct: the protein on cells also has its transmembrane and cytoplasmic parts (Genbank AAB41060); also called C1R-MICA*001; C1R-MICA*01
T5 sequence: T1 sequence
Described as above. As for the experimental part: as §2, §3, §4

Assay [5] concerns the target T6, MICA*008 expressed at the cell surface (human, UniProt Q29983 24-297).
T6 construct: also called C1R-MICA*008; C1R-MICA*08
T6 chain: T4 chain with V122L, S175G, R181T, T213I, Q251R
The description is as above. Here is the method:
as §2, §3, §4

For assay [6], the target named is T7, human ULBP-2-Fc (R&D systems) (human, UniProt Q9BZM5 26-217, limits assumed).
T7 construct: Bought; not shown: Fc of the bought fusion protein
T7 sequence (looked up): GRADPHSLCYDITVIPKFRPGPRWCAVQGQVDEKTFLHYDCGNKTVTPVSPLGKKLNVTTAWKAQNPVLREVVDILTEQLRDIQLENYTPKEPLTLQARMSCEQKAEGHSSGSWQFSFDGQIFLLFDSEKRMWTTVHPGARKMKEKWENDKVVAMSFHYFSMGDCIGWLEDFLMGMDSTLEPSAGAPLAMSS
In words: SPR, antibody injected over immobilized ULBP-2-Fc. As for the experimental part:
as §1

The target of assay [7] is T8, human ULBP-1-Fc (R&D systems) (human, UniProt Q9BZM6 26-216, limits assumed).
T8 construct: Bought; not shown: Fc of the bought fusion protein
T8 sequence (looked up): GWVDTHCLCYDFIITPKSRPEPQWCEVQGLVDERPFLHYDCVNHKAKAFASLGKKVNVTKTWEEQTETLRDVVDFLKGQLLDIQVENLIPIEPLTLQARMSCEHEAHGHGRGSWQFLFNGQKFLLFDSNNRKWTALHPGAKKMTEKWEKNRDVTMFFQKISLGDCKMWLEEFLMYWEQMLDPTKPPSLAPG
The assay is described as follows: SPR, antibody injected over immobilized ULBP-1-Fc. As for the experimental part: as §1

For assay [8], the target named is T9, human ULBP-3-Fc (R&D systems) (human, UniProt Q9BZM4 30-217, limits assumed).
T9 construct: Bought; not shown: Fc of the bought fusion protein
T9 sequence (looked up): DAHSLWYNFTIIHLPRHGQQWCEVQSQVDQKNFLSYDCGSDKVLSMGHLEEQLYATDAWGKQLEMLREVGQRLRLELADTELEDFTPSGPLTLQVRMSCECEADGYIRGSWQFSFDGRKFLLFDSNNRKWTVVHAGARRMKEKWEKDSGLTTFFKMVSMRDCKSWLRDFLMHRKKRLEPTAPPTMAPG
The assay is described as follows: SPR, antibody injected over immobilized ULBP-3-Fc. Here is the method: as §1

Numbering of substitutions follows the chain as printed.

What is called Kd is the equilibrium constant for the complex coming apart. By EC50 is commonly meant the concentration at which the effect is half-maximal. A higher EC50 goes with a need for much substance.

B1: CHG1-M-MIA-10F3 (antibody, human IgG1, V domains shown)
VH: QVQLQQSAAELARPGASVKMSCKASGYTFTSYTMHWVKQRPGQGLEWIGYINPSSGYTEYNQKFKDKTTLTVDKSSTTSYMQLSSLTSDNSAVYYCARGGDWDVDWFVYWGQGTLVTVSA
VL: QIVLTQSPAIMSASPGEKVTITCSASSSISYMHWFQQKPGTSPKLWIYSTSKLASGVPARFSGSGSGTSHSLTISRMEAEDAATYYCQHRSTYPFTFGSGTKLEIK
notes: the VH entry ends with ASTK
Take B1: the Kd with MICA*001-BirA was found to be 8.3 nM. Moreover, in assay [1], the binding result was “binds”. The EC50 was determined as 0.94 µg/mL in assay [2], 0.17 µg/mL in [3], 0.47 µg/mL in assay [4] and 0.26 µg/mL in assay [5].

B2: CHG1-M-MIA-19E9 (antibody, human IgG1, V domains shown)
VH: DVQLQESGPGLVKPSQSLSLTCTVTGYSITSDYAWNWIRQFPGNKLEWMGFVSYSGTTKYNPSLKSRISITRDTSENQFFLQLNSVTSEDTATYYCARGYGFDYWGQGTTLTVSS
VL: EIVLTQSPTTMAASPGEKITITCSATSSISSIYFHWYQQRPGFSPKLLIYRTSNLASGVPARFSGSGSGTSYSLTIGTMEAEDVATYYCQQGTTIPFTFGSGTKLEIK
notes: also called chimeric anti-MICA 19E9
With B2, the binding result in [6], in assay [7] and in [8] was “no binding (tested: 10 µg/ml)” each time.

B3: CHG1-M-MIA-15F9 (antibody, human IgG1, V domains shown)
VH: DVQLQESGPDLVKPSQSLSLTCTVTGYSITSGYSWHWIRQFPGNKLEWMGFIHYSGSTDYNPSLKSRISLTRDTSKNQFFLQLNSVSTEDTATYYCAKDYGHWYFDVWGAGTTVTVSS
VL: SIVMTQTPKFLLVSAGDRVTITCKASQSVSYDVAWYQQKPGQSPKLLIFYASNRYTGVPARFTGSGYGTDFTFTISTVQAEDLAVYFCQQDYSSLTFGAGTKLELK
notes: the VH entry ends with ASTK
For the molecule B3, the dissociation constant (Kd) with MICA*001-BirA is 61 nM. Moreover, the binding result in assay [1] is “binds”. Moreover, the half-maximal effective concentration (EC50) stood at 1.81 µg/mL in [2], 0.43 µg/mL in assay [3], 0.68 µg/mL in assay [4] and 0.79 µg/mL in [5].

B4: CHG1-M-MIA-18E8 (antibody, human IgG1, V domains shown)
VH: DVQLQESGPDLVNPSQSLSLICTVTGYSITSDYSWHWIRQFPGNKLEWMGNIHYSGRINYNPSLRSRISITRDTSKNQFFLQLISVTTEDTATYYCATRRTFGNFEDYWGQGTTLTVSS
VL: QIVLSQSPATLSVSPGEKVTMTCRSSSSVNYMHWYQQKPGSSPKPWIYATSTLASGVPARFSGSGSGTSYSLTISRVEAEDAATYYCQQWSSNPLTFGAGTKLELK
notes: the VH entry ends with ASTK
Regarding B4, binding with MICA*001-BirA was characterised by a dissociation constant (Kd) of 54 nM. For the same molecule, in [1], the binding result is on record as “binds”. Further, the EC50 came to 0.3 µg/mL in [2], 0.15 µg/mL in assay [3], 0.5 µg/mL in assay [4] and 0.24 µg/mL in assay [5].
